Results: article PMC3587421, “Native Tertiary Structure and Nucleoside Modifications Suppress tRNA’s Intrinsic Ability to Activate the Innate Immune Sensor PKR”

Molecular target: PKR dsRBD (P20) (UniProt P19525 1-184)
Test: EMSA; 0.1 mg/mL herring sperm DNA competitor; Hill 2.9; 25 mM Hepes-KOH pH 7.5, 10 mM NaCl, 5% glycerol, 5 mM DTT, 0.1 mM EDTA, 0.1 mg/mL tRNAPhe or herring sperm DNA; room temperature 10 min; 10% native gel, 0.5x TB, 16 C
Settings: protein: recombinant; chain copies: 2; label: 5'-32P; tRNA fold, monomer, ~20 bp

PKR dsRBD (P20), sequence (P19525 1-184): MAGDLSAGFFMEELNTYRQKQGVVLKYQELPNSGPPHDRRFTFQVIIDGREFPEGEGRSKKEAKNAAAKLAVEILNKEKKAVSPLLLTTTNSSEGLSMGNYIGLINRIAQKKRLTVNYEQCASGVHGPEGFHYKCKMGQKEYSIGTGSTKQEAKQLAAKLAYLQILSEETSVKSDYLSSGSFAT

B1: T7 mt-tRNALeu WT (monomer) (structured_RNA)
RNA: UUAAGAUGGCAGAGCCCGGUAAUCGCAUAAAACUUAAAACUUUACAGUCAGAGGUUCAAUUCCUCUUCUUAACACCA
modifications: none (unmodified transcript)
Which Kd does the source give for B1 here?
The Kd was 5.1 µM.
